The values below come from patent publication US20240376186A1 (AARHUS UNIVERSITET, published 2024).

The target of assay [1] is T1, C3b (human, UniProt P01024 23-667; P01024 749-1663).
T1 construct: also called human C3b
The assay can be described thus: bio-layer interferometry, binder on anti-penta his biosensors; reference EWE-hC3Nb1 on C3b. The method, then: FIGS. 8A-8B Bio-layer interferometry-based analysis of EWEμH. (FIG. 8A) Anti-penta his biosensors were coated with EWEμH. The sensors were transferred into a dilution series from 1.5625-50 nM C3b. (FIG. 8B) Anti-penta his biosensors were coated with EWEμH and transferred into an iC3b dilution series ranging from 3.125-50 nM.
(§1) Bio-layer interferometry experiments. All experiments were performed in 20 mM HEPES pH 7.5, […]. All experiments were performed on an Octet RED96 (Fortébio Pall Corporation) instrument operating at 30° C., shaking at 1000 rpm. EWE-hC3Nb1, EWEμH or EWEnH was immobilized on anti-penta his biosensor (Fortebio Pall Corporation) and the sensors were transferred into dilution series of C3b or iC3b. Measurements of 0 nM analyte were subtracted from sensorgrams for normalization and the sensorgrams were fitted to a 1:1 binding model using the GraphPad Prism (version 6.01) software.

The target of assay [2] is T1, C3b. The assay can be described thus: bio-layer interferometry, summary of affinities (FIG. 10). As for the experimental part:
FIGS. 9A-9B Bio-layer interferometry-based analysis of EWEnH. (FIG. 9A) Anti-penta his biosensors were coated with EWEnH. The sensors were transferred into a dilution series from 3.125-100 nM C3b. (FIG. 9B) Anti-penta his biosensors were coated with EWEnH. The iC3b concentration tested ranged from 6.25-100 nM.
as §1

Assay [3] has as its target T1, C3b. The assay can be described thus: size exclusion chromatography, 2-fold molar excess of EWE-hC3Nb1; SDS-PAGE of peak fractions confirmed the complex. The method, then: (§2) Size exclusion chromatography assay. 200 μg C3b was mixed with a 2-fold molar excess of EWE-hC3Nb1 or left untreated. The mix was diluted to 400 μL in 20 mM HEPES pH 7.5, 150 mM NaCl and applied to a Superdex 200 increase (GE Healthcare) column equilibrated in dilution buffer. SEC assaying binding of EWE-hC3Nb1 to native C3 was performed similarly. Peak fraction were analyzed by SDS PAGE.

The target in another assay is T2, native C3 (human, UniProt P01024 23-667; P01024 668-1663).
T2 construct: also called Complement component 3
T2 sequence (P01024 23-667, chain 1 of 2): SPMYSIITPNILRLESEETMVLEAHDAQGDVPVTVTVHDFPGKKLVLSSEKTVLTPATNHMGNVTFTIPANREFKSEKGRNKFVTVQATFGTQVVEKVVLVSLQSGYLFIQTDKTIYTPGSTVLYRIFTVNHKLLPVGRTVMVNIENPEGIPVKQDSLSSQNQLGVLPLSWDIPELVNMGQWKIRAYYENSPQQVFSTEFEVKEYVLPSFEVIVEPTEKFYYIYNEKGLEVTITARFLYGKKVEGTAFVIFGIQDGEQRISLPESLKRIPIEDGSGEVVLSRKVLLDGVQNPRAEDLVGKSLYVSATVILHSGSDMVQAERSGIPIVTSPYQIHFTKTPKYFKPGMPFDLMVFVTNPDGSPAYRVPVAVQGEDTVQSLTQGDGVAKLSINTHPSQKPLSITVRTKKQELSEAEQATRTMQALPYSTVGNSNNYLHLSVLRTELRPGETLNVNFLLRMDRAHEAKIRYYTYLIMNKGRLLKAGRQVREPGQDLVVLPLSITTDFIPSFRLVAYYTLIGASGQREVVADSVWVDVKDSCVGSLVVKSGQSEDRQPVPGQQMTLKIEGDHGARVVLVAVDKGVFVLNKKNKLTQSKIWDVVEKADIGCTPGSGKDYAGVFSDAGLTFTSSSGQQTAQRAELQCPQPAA
T2 sequence (P01024 668-1663, chain 2 of 2): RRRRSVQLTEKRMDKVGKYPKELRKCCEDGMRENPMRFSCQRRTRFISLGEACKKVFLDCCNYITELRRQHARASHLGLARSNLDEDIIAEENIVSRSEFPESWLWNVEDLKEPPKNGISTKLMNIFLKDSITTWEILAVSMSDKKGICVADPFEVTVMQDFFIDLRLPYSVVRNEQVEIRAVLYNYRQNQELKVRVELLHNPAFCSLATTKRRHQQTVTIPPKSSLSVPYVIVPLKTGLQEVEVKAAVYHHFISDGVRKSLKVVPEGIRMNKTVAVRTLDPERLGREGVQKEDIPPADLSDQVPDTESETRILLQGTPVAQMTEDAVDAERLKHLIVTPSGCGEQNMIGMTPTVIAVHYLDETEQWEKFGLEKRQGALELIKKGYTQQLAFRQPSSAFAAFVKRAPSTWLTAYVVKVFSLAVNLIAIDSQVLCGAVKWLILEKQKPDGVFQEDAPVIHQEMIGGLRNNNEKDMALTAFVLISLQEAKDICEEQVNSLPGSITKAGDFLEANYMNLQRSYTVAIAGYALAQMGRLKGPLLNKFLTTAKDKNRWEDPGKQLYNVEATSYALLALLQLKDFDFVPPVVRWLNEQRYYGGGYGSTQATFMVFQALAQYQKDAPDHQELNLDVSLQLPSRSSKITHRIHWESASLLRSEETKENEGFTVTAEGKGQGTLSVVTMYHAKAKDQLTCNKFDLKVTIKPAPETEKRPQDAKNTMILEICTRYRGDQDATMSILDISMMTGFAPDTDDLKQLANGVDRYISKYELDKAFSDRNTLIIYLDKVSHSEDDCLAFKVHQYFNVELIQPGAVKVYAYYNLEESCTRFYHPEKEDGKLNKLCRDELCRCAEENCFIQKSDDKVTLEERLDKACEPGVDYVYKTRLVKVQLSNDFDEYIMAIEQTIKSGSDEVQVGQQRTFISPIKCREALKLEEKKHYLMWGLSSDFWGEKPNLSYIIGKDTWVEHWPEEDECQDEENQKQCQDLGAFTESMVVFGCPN
The assay can be described thus: size exclusion chromatography. As for the experimental part: as §2

T1 sequence (P01024 23-667 limits assumed, chain 1 of 2): as the sequence (P01024 23-667, chain 1 of 2) above
T1 sequence (P01024 749-1663 limits assumed, chain 2 of 2): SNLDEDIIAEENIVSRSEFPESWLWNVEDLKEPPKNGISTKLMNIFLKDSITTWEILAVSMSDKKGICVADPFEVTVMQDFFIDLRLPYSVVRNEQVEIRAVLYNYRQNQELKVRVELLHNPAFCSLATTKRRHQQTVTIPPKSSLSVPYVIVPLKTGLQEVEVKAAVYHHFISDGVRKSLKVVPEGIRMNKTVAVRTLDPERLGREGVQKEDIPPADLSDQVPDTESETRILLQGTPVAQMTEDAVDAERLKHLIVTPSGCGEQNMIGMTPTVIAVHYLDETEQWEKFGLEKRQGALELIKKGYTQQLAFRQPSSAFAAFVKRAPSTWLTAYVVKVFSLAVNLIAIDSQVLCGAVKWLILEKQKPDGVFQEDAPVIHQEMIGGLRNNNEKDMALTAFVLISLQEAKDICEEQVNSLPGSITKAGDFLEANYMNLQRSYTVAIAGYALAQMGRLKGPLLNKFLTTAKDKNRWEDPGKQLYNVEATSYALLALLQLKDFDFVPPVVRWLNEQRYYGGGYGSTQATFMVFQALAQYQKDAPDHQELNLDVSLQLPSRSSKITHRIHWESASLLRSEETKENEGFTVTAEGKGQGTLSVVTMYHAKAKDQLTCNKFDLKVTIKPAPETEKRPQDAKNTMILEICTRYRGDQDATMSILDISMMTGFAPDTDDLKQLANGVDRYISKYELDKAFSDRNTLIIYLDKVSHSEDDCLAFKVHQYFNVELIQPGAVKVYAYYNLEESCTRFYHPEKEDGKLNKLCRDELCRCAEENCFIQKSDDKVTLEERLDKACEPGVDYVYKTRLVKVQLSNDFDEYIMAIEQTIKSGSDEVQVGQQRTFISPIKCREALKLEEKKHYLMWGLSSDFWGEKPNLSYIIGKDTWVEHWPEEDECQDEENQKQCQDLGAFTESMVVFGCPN

B1: EWEµH (other)
chain: EWEQVQLVETGGGLVQAGGSLRLSCAASGSIFSINAMGWFRQAPGKEREFVATINRSGGRTYYADSVKGRFTISRDNGKNMVYLQMHSLKPEDTAIYYCAAGTGWSPQTDNEYNYWGQGTQVTVSSGGGGSGGGGSGGGGSGGGGSRPCGHPGDTPFGTFTLTGGNVFEYGVKAVYTCNEGYQLLGEINYRECDTDGWTNDIPICEVVKCLPVTAPENGKIVSSAMEPDREYHFGQAVRFVCNSGYKIEGDEEMHCSDDGFWSKEKPKCVEISCKSPDVINGSPISQKIIYKENERFQYKCNMGYEYSERGDAVCTESGWRPLPSCEEAGGGGGGGGGGGGGKCGPPPPIDNGDITSFPLSVYAPASSVEYQCQNLYQLEGNKRITCRNGQWSEPPKCLHPCVISREIMENYNIALRWTAKQKLYSRTGESVEFVCKRGYRLSSRSHTLRTTCWDGKLEYPTCAKRENLYFQG
notes: expressed in HEK293 cells; also called EWEuH; fusion EWEµH; not shown: His tag implied by HisTrap purification and capture on anti-penta his biosensors
Regarding B1, the “fold stronger binding than EWE-hC3Nb1” value with C3b [1] is about 10 fold.

B2: EWEnH (other)
chain: EWEQVQLVETGGGLVQAGGSLRLSCAASGSIFSINAMGWFRQAPGKEREFVATINRSGGRTYYADSVKGRFTISRDNGKNMVYLQMHSLKPEDTAIYYCAAGTGWSPQTDNEYNYWGQGTQVTVSSGGGGSGGGGSGGGGSGGGGSRPCGHPGDTPFGTFTLTGGNVFEYGVKAVYTCNEGYQLLGEINYRECDTDGWTNDIPICEVVKCLPVTAPENGKIVSSAMEPDREYHFGQAVRFVCNSGYKIEGDEEMHCSDDGFWSKEKPKCVEISCKSPDVINGSPISQKIIYKENERFQYKCNMGYEYSERGDAVCTESGWRPLPSCEEA
notes: expressed in HEK293 cells; also called fusion protein EWEnH; not shown: His tag implied by HisTrap purification and capture on anti-penta his biosensors
On to B2, for which, in the assay with C3b [2], the binding result was “binds”.

B3: EWE-hC3Nb1 (VHH)
VHH: QVQLVETGGGLVQAGGSLRLSCAASGSIFSINAMGWFRQAPGKEREFVATINRSGGRTYYADSVKGRFTISRDNGKNMVYLQMHSLKPEDTAIYYCAAGTGWSPQTDNEYNYWGQGTQVTVSS
notes: hC3Nb1 with an N-terminal Glu-Trp-Glu motif; expressed in E. coli; also called single domain antibody EWE-hC3Nb1; EWE-hC3Nb1 nanobody; not shown: His tag implied by HisTrap purification and capture on anti-penta his biosensors
Take B3: the binding result with C3b [3] is listed as “binds”; with native C3, “no binding (tested: 2-fold molar excess of EWE-hC3Nb1)”.
